Here are results for six molecules from patent US20260176659A1, “IMPROVED METHOD FOR THE PRODUCTION OF NATURAL VANILLIN” (BASE SE, priority 2022, published 2026).

The assay can be described thus: Bioconversion of eugenol to vanillin: one-pot concurrent cascade EUGO + alkene cleavage oxygenase (5 mM scale). In kind it is biochemical. Conditions: Table 8b, EUGO FD-CFE 1 mg/mL, CO-0X FD-CFE 1 mg/mL, catalase 10 mg/mL, eugenol 5 mM. Here is the method:
Stock solutions of eugenol (100 mM) were prepared in ethanol or DMSO and stored at −20° C. Unless otherwise stated, the reaction mixtures (0.5 mL) were set up in 1.5 mL glass vials as follows: freeze-dried cell free extract of IECO/CO-XX (3 mg) and EUGO (0.5 mg) were dissolved in the reaction buffer (50 mM glycine-NaOH pH 9.0) containing sodium ascorbate (1 mM), FeSO4 (1 mM) and bovine liver catalase (5 mg, Sigma Aldrich C40). The reaction was initiated by the addition of 0.025 mL eugenol stock (final concentration 5 mM), then incubated at 30° C. and 120 rpm overnight (rotary shaker). The final content of cosolvent was 5% v/v. To improve oxygenation, the vials were placed horizontally. At certain time points, samples (0.2 mL) were quenched with methanol (0.4 mL) and the mixture was centrifuged at 20238 g for 5-10 mins. Finally, the supernatant was analysed by HPLC.
EUGO (0.5 mg CFE), CO-25 (3 mg CFE) and catalase (5 mg, Sigma product #C40) were dissolved in 50 mM Glycine-NaOH pH 9.0 or Tris-HCl pH 8.0 together with FeSO4 (1 mM) and sodium ascorbate (1 mM). Note that the buffer content of the freeze-dried biocatalyst prep was not considered for the assembling of the reaction. The reaction was started by the addition of 5 mM eugenol from a 20× stock in ethanol. The reactions—performed in glass vials—were then incubated at 30° C. and 120 rpm (25 mm shaker). Finally, samples of the reaction mixture were diluted with MeOH and analyzed by HPLC at 280 and 340 nm.

B1: CO-13: alkene cleavage oxygenase, Actinobacteria bacterium, SEQ ID NO: 64 (protein, listed as Actinobacteria bacterium)
chain: MVRFPPPKDPFDAPMRVEADIRGVQVTQGEVPEHLDGIYYRCVSDRQWPSYVENDLELFNSDGMIISFRFHKGRVDFKSRYVRTPRFVAEEKAGRALFGAYRNPFDDDPSVAGISRGLANTNVFYHGGKLYASKEDSPPILLDPITLETIGEYDFEGALTSRTSTAHPKFDPITGEMVFFGYEAKGPGTPDIAYYEADASGRIIHEAWLEAPYTSMVHDWAVTQNFVVFPIIPLRSDIEWIKQGRSYFQWDPYEDVYLGVMPRKGTAKDLRWYRGSNRFASHIMGAYDDGRYIYIDTPVGQTNYFPWFPDITGAPYDPERSKGYLSRWTIDTQGESDGFTETRLCDLPGEFPRMDDRQETLPYHWGIMLLTDGPGRVAPGGGFRWLMGIDLKTGRKQIYYPGDNCTLGEAIFVPAAPDAPPGVGYVFTVVARRAEMRSDLVILDAQHIDGEPVCTLSLPMRIRMGVHGNWVSAEELARRTA
With B1, for the setting “pH 8.0”, the “Product distribution after 24 hours 2a (%)” value came to 56.4%, the “Product distribution after 24 hours 3a (%)” value is on record as 26.4% and the “Product distribution after 24 hours 5a (%)” value is listed as 17.2%. Where the note is “pH 9.0”, the “Product distribution after 24 hours 2a (%)” value is reported as 45.3%, the “Product distribution after 24 hours 3a (%)” value came out at 32.4% and the “Product distribution after 24 hours 5a (%)” value is on record as 22.3%.

B2: CO-16: alkene cleavage oxygenase, Valsa mali, SEQ ID NO: 76 (protein, listed as Valsa mali)
chain: MAHIFDIAPAVKGYASGRLAKPGDATTFPDTDVFRGINKPSRFEGDIFDLEVTGTIPKDIDGTFYRVQPDHRFPPLFEDDIHFNGDGSVTAIRISNGHADFKQRYVQTDRYKAETAARRSLFGRYRNPWTDNESVKGVIRTASNTNVTFWRGILLASKEDGPPFAMDPVTLETLGRYDFEGQIKAPTFTAHPKFDPDTGEMLCFAYEAGGDGNDGSCDVVVWTVDADGKKTEECWYKAPFAGMIHDMAVSKNFVVLPLTPLKVNMDRMKKGGEKFAWDPKEDQYYGLVPRRNAKPEDIRWFRADNGMAPFLKTLSTHCADTPASSAFQGHIAGCYENEEGHVVVDLTVADGNVFFWWPPDDGTAIPPGKKPNQLSSTTTRWILDPKAETNTRITPAYVWPTNGEFSRIDDRFVTKKYKHFWQAKVDPTRPYDFAKCGPPAGGLFNCLGHYTWSPDNPLAKGEEDVFFFGPTATVQEPSFIPKDEGGEGDGYLIALVNHLDVLRNDIAVFDAQHLAGGPLAVLHLPLKLKLGLHGNFVDHRDIEAWQRRRDAKGDVGPVKVATEPLPWQKSFWDRRQDGQNGGLNGTH
Take B2: where the note is “pH 8.0”, the “Product distribution after 24 hours 2a (%)” value amounted to 76.0%, the “Product distribution after 24 hours 3a (%)” value turned out to be 4.3% and the “Product distribution after 24 hours 5a (%)” value was 19.7%. Where the note is “pH 9.0”, the “Product distribution after 24 hours 2a (%)” value is 71.0%, the “Product distribution after 24 hours 3a (%)” value is listed as 5.5% and the “Product distribution after 24 hours 5a (%)” value was 23.5%.

B3: CO-17: alkene cleavage oxygenase, Coniochaeta pulveracea, SEQ ID NO: 82 (protein, listed as Coniochaeta pulveracea)
chain: MAHIFDLAPEVSLPDEPIYKDGKLHRPNHVQFPQTPVFASMNKPSRFEGTILSLEHTGIIPPEINGTFFRVQPDHRFPPMFEDDIHFNGDGSVTAIRIFDGKVDFRQRYVHTERYKAETKARRSLFGRYRNPWTDNESVKGVIRTASNTNVFFWRGMLLATKEDGPPYAMDPVTLETYGRYDFEGQILSPTFTAHPKFDPRTGEMVCFAYETGGDGADCSREVMVWTLDKDGKKVSERWFEAPFAGMIHDCGLSENWLVLPLTPIKMDLERMKRGGNKFAWDPKEDQVYGLVPRRGDGEVKWFRGENAFHGHVAGCYENAQGHVVIDLTVADGNVFFWFPPDGEEQGQFAKRNKLSSPTHRWILDPSLPNNARITPALVWPTNGEFSRIDDRWTTRKYKHFWLAKVDPSRPYDFAKCGPPAGGLFNCLGHYTWDLDNELATGQEDVYFAGPTCTFQEPTFIPKGDKEGEGWLIALVNHLDVLRNDVVILDAQNLAKGPVCTIHLPLKLKLGLHGNWVDWRDIEDWTKRRQEDGEVGPVQVATEMLPWQKAFWEKEKEKNGNGVEGPNINGTNGANGTNGVNGSSH
Consider B3, for which, for the setting “pH 8.0”, the “Product distribution after 24 hours 2a (%)” value stood at 73.1%, the “Product distribution after 24 hours 3a (%)” value is 7.8% and the “Product distribution after 24 hours 5a (%)” value is on record as 19.1%. In addition, for the setting “pH 9.0”, the “Product distribution after 24 hours 2a (%)” value is 65.8%, the “Product distribution after 24 hours 3a (%)” value is 11.8% and the “Product distribution after 24 hours 5a (%)” value is recorded as 22.5%.

B4: CO-20: alkene cleavage oxygenase, Pseudomonas frederiksbergensis, SEQ ID NO: 120 (protein, listed as Pseudomonas frederiksbergensis)
chain: MTHPFPQTPEFSGALYAPSRVEAEVFDLEVEGTLPDSIRGAFYQVAPDPQYPPMLGNDIFFNGDGMVSAFNFADGKVSMRRRYVKTDRLMAQRREGRSLNGVYRNVFTNDPLAAKNNTTANTSVVAHNGVLLALKEDALPWAMDLETLETLGEWSFDGQIESATFTAHPKLDPVTGNLLAFSYEAKGDGTPDLAYFELSPDGKLLHQIWFQAPYAAMVHDFAVTEHYVVFPLIPLTVDVERMKNGGQHFQWQPDLPQLFAVVPRNGHAEDVRWFKGPKDGFQGHTLNAFDEDDKVYVDMPVTGGNIFYFFPQADGYVPPPETLAASLMRWTFDLTSTQDDIQPQPLTDYPCEFPRCDDRYIGRKYEHGFVLAFDPERPYNPANGPIPFQFFNLLARVNLKTGATDAWFPGDSGCFQEPIFIPRAPDAQEADGYVVALLNLIAEGRSELVVLDSRDMASGPIARIKVPFRLRMSLHGCWVPSKK
As for B4, where the note is “pH 8.0”, the “Product distribution after 24 hours 2a (%)” value was found to be 59.4%, the “Product distribution after 24 hours 3a (%)” value was 23.6% and the “Product distribution after 24 hours 5a (%)” value came to 17.0%. Further, under “pH 9.0”, the “Product distribution after 24 hours 2a (%)” value is on record as 57.8%, the “Product distribution after 24 hours 3a (%)” value worked out at 22.0% and the “Product distribution after 24 hours 5a (%)” value was 20.2%.

B5: CO-22: alkene cleavage oxygenase, Pseudomonas kilonensis, SEQ ID NO: 128 (protein, listed as Pseudomonas kilonensis)
chain: MTIPFPQTSEFSGALYTPSRVEAELFDLEVEGTLPAEIRGAFYQVAPDPQYPPMLGTDIFFNGDGMVTGFYFANGKVSMRRRYVKTDRLMAQRREGRSLNGVYRNLYTNDPLAAKNNTTANTTVIPHNGVLLALKEDALPWAMDLETLETLGEWTFDGQIKAATFTAHPKRDPATGNLLAFSYEAKGDGTPDIAYFEISPDGKLLHEIWFQAPYAAMVHDFAVTERYVVFPLIPLTVDVERMKNGGPHFQWQPDLPQLFAVVPRNGNAQDVRWFKGPKDSFQGHTLNAFDEDGKVYVDMPVTGGNVFYFFPQADGYVPPPETLAASLMRWTFDLSSPQDEVEPQPLTEYPCEFPRCDDRYIGRKYQHGFLLAFDPERPYNPANGPIPFQFFNLLVHLNLKTGSTDAWFPGDSGCFQEPIFIPRSADAEEADGYVVALLNLIAEGRSELVVLDSRDMAGGPIARIRIPFRMRMSLHGCWAPSD
In the case of B5, where the note is “pH 8.0”, the “Product distribution after 24 hours 2a (%)” value turned out to be 69.4%, the “Product distribution after 24 hours 3a (%)” value turned out to be 15.0% and the “Product distribution after 24 hours 5a (%)” value is 15.6%. Further, under “pH 9.0”, the “Product distribution after 24 hours 2a (%)” value is listed as 63.2%, the “Product distribution after 24 hours 3a (%)” value came out at 16.8% and the “Product distribution after 24 hours 5a (%)” value was 20.0%.

B6: CO-15: alkene cleavage oxygenase, Herbaspirillum sp., SEQ ID NO: 74 (protein, listed as Herbaspirillum sp.)
chain: MNIRFSNNDFKSFEAPMRAEIELTGLEVVQGKVPKNLEGGFFRLIGDRKWPAFVDNDVFMLNEDGMASCFYFKDGKVDFRMRYVRTPRFVAEEKAGRALFGHYRNPFSDDPSVAGLSRGTANVTMLMHGGKLLALKEDSPAIELNPFTLETIGEYDWNGKVTAKAITAHPKIDAKTGELVFFGYCAAGPATRDIAYYEADSEGNVTHETWFHAPYTCMVHDIMVTQNYVVFPITPLRHELEWIKRSEPAFKWDPHESVYLGVLPRKGRGDQIRWFKGPNQCHGHTVGAYDDGRYIYADNTFSKRSFFHFFPNVDGSQFKPTDAMPYMKRVVIDMERSDNSFVEQPLFEYPCELPRIDTRFETLPYSFATMNLLDVPGQERVGRGFQWIATMDVNGAKPSKILYAGDNCSIGEPQFVPAHDNAAEGDGYIMTVVGRHEQMRSELLILDASDINAPPVATVALPFRLRSTGHGYWYGGRQLRGETNFPGAW
Take B6: where the note is “pH 8.0”, the “Product distribution after 24 hours 2a (%)” value came to 68.3%, the “Product distribution after 24 hours 3a (%)” value is on record as 13.5% and the “Product distribution after 24 hours 5a (%)” value was determined as 18.2%. Besides, under “pH 9.0”, the “Product distribution after 24 hours 2a (%)” value turned out to be 61.2%, the “Product distribution after 24 hours 3a (%)” value is 16.5% and the “Product distribution after 24 hours 5a (%)” value is 22.2%.
